Assay results as given in patent publication US20110123511.

Tests used:
[1] = system: peptide containing H3 residues 1-20
[2] = system: full-length free histone H3 (individual core histone)
[3] = system: core histone H2B
[4] = system: core histone H2A
[5] = system: core histone H4
[6] = system: GST-fusion histone H3 peptide (residues 1-57), K27R mutant [GST: P08515]
[7] = system: H3 peptide containing residues 15-30
[8] = system: H3 peptide previously di-methylated at K27
[9] = system: H3 peptide phosphorylated at S28
[10] = system: GST-fusion histone H3 peptide (residues 1-57), wild-type

Substance | methylation activity with H3 peptides (14C-methyl-SAM) [1] | histone methyltransferase activity [2] | histone methyltransferase activity [3] | histone methyltransferase activity [4] | histone methyltransferase activity [5] | HMT activity on GST-histone H3 (residues 1-57) [6] | methylation activity with H3 peptides (14C-methyl-SAM) [7] | methylation activity with H3 peptides (14C-methyl-SAM) [8] | methylation activity with H3 peptides (14C-methyl-SAM) [9] | HMT activity on GST-histone H3 (residues 1-57) [10]
SET protein from chlorella virus MA-1D | these viral SET proteins only methylated a H3 peptide containing residues 15-30 but not a peptide containing H3 residues 1-20 | the SET proteins from these 3 viruses selectively methylate H3 (data not shown) | the SET proteins from these 3 viruses selectively methylate H3 (data not shown) | the SET proteins from these 3 viruses selectively methylate H3 (data not shown) | the SET proteins from these 3 viruses selectively methylate H3 (data not shown) | these viral SET proteins had robust methylation activity on wild-type H3 but little or diminished activity on the K27R mutant | these viral SET proteins only methylated a H3 peptide containing residues 15-30 but not a peptide containing H3 residues 1-20 | They showed little methyltransferase activity if the H3 peptide was previously di-methylated at K27 or phosphorylated at S28 | They showed little methyltransferase activity if the H3 peptide was previously di-methylated at K27 or phosphorylated at S28 | these viral SET proteins had robust methylation activity on wild-type H3 but little or diminished activity on the K27R mutant
SET protein from chlorella virus NY-2A | these viral SET proteins only methylated a H3 peptide containing residues 15-30 but not a peptide containing H3 residues 1-20 | the SET proteins from these 3 viruses selectively methylate H3 (data not shown) | the SET proteins from these 3 viruses selectively methylate H3 (data not shown) | the SET proteins from these 3 viruses selectively methylate H3 (data not shown) | the SET proteins from these 3 viruses selectively methylate H3 (data not shown) | these viral SET proteins had robust methylation activity on wild-type H3 but little or diminished activity on the K27R mutant | these viral SET proteins only methylated a H3 peptide containing residues 15-30 but not a peptide containing H3 residues 1-20 | They showed little methyltransferase activity if the H3 peptide was previously di-methylated at K27 or phosphorylated at S28 | They showed little methyltransferase activity if the H3 peptide was previously di-methylated at K27 or phosphorylated at S28 | these viral SET proteins had robust methylation activity on wild-type H3 but little or diminished activity on the K27R mutant
SET protein from chlorella virus NY-2B | these viral SET proteins only methylated a H3 peptide containing residues 15-30 but not a peptide containing H3 residues 1-20 | the SET proteins from these 3 viruses selectively methylate H3 (data not shown) | the SET proteins from these 3 viruses selectively methylate H3 (data not shown) | the SET proteins from these 3 viruses selectively methylate H3 (data not shown) | the SET proteins from these 3 viruses selectively methylate H3 (data not shown) | these viral SET proteins had robust methylation activity on wild-type H3 but little or diminished activity on the K27R mutant | these viral SET proteins only methylated a H3 peptide containing residues 15-30 but not a peptide containing H3 residues 1-20 | They showed little methyltransferase activity if the H3 peptide was previously di-methylated at K27 or phosphorylated at S28 | They showed little methyltransferase activity if the H3 peptide was previously di-methylated at K27 or phosphorylated at S28 | these viral SET proteins had robust methylation activity on wild-type H3 but little or diminished activity on the K27R mutant
